Experimental findings from US20220040297A1 (Chugai, published 2022) are described below.

B1: CE115HA000 H35S (antibody, name in Kabat numbering, V domains shown)
VH: QVQLVESGGGVVQPGRSLRLSCAASGFTFSNAWMSWVRQAPGKGLEWVAQIKAKSNNYATYYAESVKGRFTISRDDSKNSLYLQMNSLKTEDTAVYYCRYVHYGAYYGVDAWGQGTTVTVSS
VL: DIVMTQSPLSLPVTPGEPASISCRSSQSLVHSNRNTYLHWYQQKPGQAPRLLIYKVSNRFSGVPDRFSGSGSGTDFTLKISRVEAEDVGVYYCGQGTQVPYTFGQGTKLEIK
B2: CE115HA000 H96K (antibody, name in Kabat numbering, V domains shown)
VH: QVQLVESGGGVVQPGRSLRLSCAASGFTFSNAWMHWVRQAPGKGLEWVAQIKAKSNNYATYYAESVKGRFTISRDDSKNSLYLQMNSLKTEDTAVYYCRYVKYGAYYGVDAWGQGTTVTVSS
VL: DIVMTQSPLSLPVTPGEPASISCRSSQSLVHSNRNTYLHWYQQKPGQAPRLLIYKVSNRFSGVPDRFSGSGSGTDFTLKISRVEAEDVGVYYCGQGTQVPYTFGQGTKLEIK
B3: CE115HA000 H35T (antibody, name in Kabat numbering, V domains shown)
VH: QVQLVESGGGVVQPGRSLRLSCAASGFTFSNAWMTWVRQAPGKGLEWVAQIKAKSNNYATYYAESVKGRFTISRDDSKNSLYLQMNSLKTEDTAVYYCRYVHYGAYYGVDAWGQGTTVTVSS
VL: DIVMTQSPLSLPVTPGEPASISCRSSQSLVHSNRNTYLHWYQQKPGQAPRLLIYKVSNRFSGVPDRFSGSGSGTDFTLKISRVEAEDVGVYYCGQGTQVPYTFGQGTKLEIK
B4: CE115HA000 H96Q (antibody, name in Kabat numbering, V domains shown)
VH: QVQLVESGGGVVQPGRSLRLSCAASGFTFSNAWMHWVRQAPGKGLEWVAQIKAKSNNYATYYAESVKGRFTISRDDSKNSLYLQMNSLKTEDTAVYYCRYVQYGAYYGVDAWGQGTTVTVSS
VL: DIVMTQSPLSLPVTPGEPASISCRSSQSLVHSNRNTYLHWYQQKPGQAPRLLIYKVSNRFSGVPDRFSGSGSGTDFTLKISRVEAEDVGVYYCGQGTQVPYTFGQGTKLEIK
B5: CE115HA000 H35V (antibody, name in Kabat numbering, V domains shown)
VH: QVQLVESGGGVVQPGRSLRLSCAASGFTFSNAWMVWVRQAPGKGLEWVAQIKAKSNNYATYYAESVKGRFTISRDDSKNSLYLQMNSLKTEDTAVYYCRYVHYGAYYGVDAWGQGTTVTVSS
VL: DIVMTQSPLSLPVTPGEPASISCRSSQSLVHSNRNTYLHWYQQKPGQAPRLLIYKVSNRFSGVPDRFSGSGSGTDFTLKISRVEAEDVGVYYCGQGTQVPYTFGQGTKLEIK
B6: CE115HA000 H35Y (antibody, name in Kabat numbering, V domains shown)
VH: QVQLVESGGGVVQPGRSLRLSCAASGFTFSNAWMYWVRQAPGKGLEWVAQIKAKSNNYATYYAESVKGRFTISRDDSKNSLYLQMNSLKTEDTAVYYCRYVHYGAYYGVDAWGQGTTVTVSS
VL: DIVMTQSPLSLPVTPGEPASISCRSSQSLVHSNRNTYLHWYQQKPGQAPRLLIYKVSNRFSGVPDRFSGSGSGTDFTLKISRVEAEDVGVYYCGQGTQVPYTFGQGTKLEIK
B7: CE115HA000 H96P (antibody, name in Kabat numbering, V domains shown)
VH: QVQLVESGGGVVQPGRSLRLSCAASGFTFSNAWMHWVRQAPGKGLEWVAQIKAKSNNYATYYAESVKGRFTISRDDSKNSLYLQMNSLKTEDTAVYYCRYVPYGAYYGVDAWGQGTTVTVSS
VL: DIVMTQSPLSLPVTPGEPASISCRSSQSLVHSNRNTYLHWYQQKPGQAPRLLIYKVSNRFSGVPDRFSGSGSGTDFTLKISRVEAEDVGVYYCGQGTQVPYTFGQGTKLEIK
B8: CE115HA000 H35W (antibody, name in Kabat numbering, V domains shown)
VH: QVQLVESGGGVVQPGRSLRLSCAASGFTFSNAWMWWVRQAPGKGLEWVAQIKAKSNNYATYYAESVKGRFTISRDDSKNSLYLQMNSLKTEDTAVYYCRYVHYGAYYGVDAWGQGTTVTVSS
VL: DIVMTQSPLSLPVTPGEPASISCRSSQSLVHSNRNTYLHWYQQKPGQAPRLLIYKVSNRFSGVPDRFSGSGSGTDFTLKISRVEAEDVGVYYCGQGTQVPYTFGQGTKLEIK

T1 sequence (P07766 23-126 limits assumed): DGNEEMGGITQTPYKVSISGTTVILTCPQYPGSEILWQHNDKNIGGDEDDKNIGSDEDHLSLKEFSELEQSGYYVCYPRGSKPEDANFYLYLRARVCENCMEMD

This experiment addresses T1, CD3ε homodimer protein (human, UniProt P07766 23-126, limits assumed, sulfo-tag or biotin label in some ECL assays).
T1 construct: also called human CD3ε homodimer protein; CD3 (CD3ε)
Kind of experiment: SPR, CD3ε homodimer on chip.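 Further: biacore SPR with antibody variants flowed as analyte over amine-coupled CD3ε homodimer on a CM chip, bound amount of each single-residue H chain variant over that of parent.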
For B1, the “ratio of amounts bound vs CE115HA000” value came to 0.23.

Turning to B2, the “ratio of amounts bound vs CE115HA000” value stood at 0.35.

On to B3, for which the “ratio of amounts bound vs CE115HA000” value worked out at 0.26.

For B4, the “ratio of amounts bound vs CE115HA000” value amounted to 0.42.

Consider B5, for which the “ratio of amounts bound vs CE115HA000” value was found to be 0.22.

On to B6, for which the “ratio of amounts bound vs CE115HA000” value was determined as 0.16.

On to B7, for which the “ratio of amounts bound vs CE115HA000” value was determined as 0.12.

Take B8: the “ratio of amounts bound vs CE115HA000” value came to 0.22.
